Measured values as given in article PMC10458388 (2023).

Molecular target: C-terminus of human Hsp90α (residues 566-732) (Homo sapiens (Human), UniProt P07900)
Test: SEC-MALS-QELS

C-terminus of human Hsp90α (residues 566-732), sequence (P07900 566-732): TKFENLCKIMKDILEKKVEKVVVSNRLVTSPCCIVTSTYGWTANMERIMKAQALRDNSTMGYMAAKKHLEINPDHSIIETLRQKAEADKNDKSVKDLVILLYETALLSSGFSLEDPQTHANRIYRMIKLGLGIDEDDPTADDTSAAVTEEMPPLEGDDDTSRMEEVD

B1: Sorghum bicolor RPAP3 (RNA polymerase II-associated protein 3), isoform 2 (protein)
chain: MEYKARSSGTSGTSTKSFRDLYNMKYSSYLNDEPMPDATSEKEQGNEYFKQKKFADAIECYSRSIGLSPTAVTFANRAMAYLKLRRFKEAEDDCTEALNLDDRYIKAYSRRITARKELGKLKEAMEDAEFAISLDPNNPELRKQYSEIKALHMEKMAKKVPAPAKRAVSGIAKTADVTSHPPTISQKDTIMEVDPPVGDAMKIRESASGRSNGGSGVIINDNTIQTQGRDANLKPGPEVSVQDLAARAASRYMASTVKSVKTPKTAYDFEVSWRALSDDTAQQIQLLKSIPPASLPEIFKNALSAPFLIDIVKCSASIFRDDTALAVSILENLARVPRFDLIIMCLSSMHKSELRKIWDQVFLAEKASADDQMEALRQLRGRYIPGGWQDSMLTSS
binding result: binds
